Source: the supplement of paper PMC10126150
± gives the standard deviation of the averaged measurements.

Test system: ATP
Assay: switch fluorescence ratio, 500 uM ATP over buffer (Cy3 cluster intensity, sum of 5 cycles each) (fold (ratio)); higher = stronger signal-on switching upon ATP binding; sequences stand for … in TCGTCGGCAGCGTCAGATGTGTATAAGAGACAGTTTTTTTTTTTTTTTTTTTTTTTTT…TC
Conditions: aptamer strand: ATP DNA aptamer (quencher-CACCTGGGGGAGTATTGCGGAGGAAGG + anchor), 100 nM annealed; ATP concentration: 500 uM
Summary of the method: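 Imaging in selection buffer was followed by imaging after 15 min with 500 uM ATP at 22 °C, for Cy3-labelled switching-strand clusters annealed to 100 nM quencher-labelled ATP aptamer on a modified Illumina MiSeq flow-cell. Five of these buffer/ATP cycles ran, separated by NaOH stripping and re-annealing. The fluorescence ratio per cluster is summed target-cycle over summed buffer-cycle Cy3 intensity, averaged per switch-domain sequence; clusters outside 100-1000 RFU were removed.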
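Also: ATP exposure 15 min at 22 °C before imaging.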

| Sequence | switch fluorescence ratio |
| --- | --- |
| AGTAAGGCGC | 1.02 ± 0.045 |
| AGTAAGGGCA | 1.01 ± 0.016 |
| AGTAAGTATG | 1.04 ± 0.054 |
| AGTAAGTCGG | 0.975 ± 0.022 |
| AGTAAGTCTG | 0.969 ± 0.02 |
| AGTAATGAGG | 0.985 ± 0.035 |
| AGTAATTAGG | 1.027 ± 0.0043 |
| AGTAATTGAC | 1.1 ± 0.013 |
| AGTAATTGCG | 0.982 ± 0.034 |
| AGTACGGGGA | 1.04 ± 0.053 |
| AGTACTGCGA | 1.05 ± 0.035 |
| AGTAGAGGAC | 1.01 ± 0.045 |
| AGTAGCATTC | 1.724 ± 0.013 |
| AGTAGCGGTC | 1.02 ± 0.057 |
| AGTAGCTTTT | 0.997 ± 0.016 |
| AGTAGGAGT | 0.998 ± 0.033 |
| AGTAGGGAGT | 0.9784 ± 0.0094 |
| AGTAGGGGGT | 1.01 ± 0.022 |
| AGTAGGGTCC | 1.03 ± 0.029 |
| AGTAGGGTGC | 1.07 ± 0.12 |
| AGTAGGGTTT | 0.9932 ± 0.0097 |
| AGTAGGTGGC | 1 ± 0.052 |

| Sequence | switch fluorescence ratio |
| --- | --- |
| AGTAGTGTTG | 1.01 ± 0.068 |
| AGTAGTTTTG | 0.98 ± 0.014 |
| AGTATCAGAA | 1 ± 0.042 |
| AGTATCCCTA | 0.998 ± 0.021 |
| AGTATGAGTA | 1.015 ± 0.0088 |
| AGTATGGTGC | 0.991 ± 0.029 |
| AGTATTACGG | 0.9989 ± 0.0088 |
| AGTATTGGGC | 1.008 ± 0.01 |
| AGTATTTATT | 1 ± 0.03 |
| AGTCAACCGG | 1.03 ± 0.034 |
| AGTCACTTAG | 1.05 ± 0.015 |
| AGTCAGAGTA | 0.9821 ± 0.004 |
| AGTCATTTTA | 0.999 ± 0.028 |
| AGTCCGGACC | 0.967 ± 0.026 |
| AGTCCGGGGT | 1.04 ± 0.025 |
| AGTCCTAGGT | 1.03 ± 0.022 |
| AGTCCTTATT | 0.977 ± 0.021 |
| AGTCGGGATG | 0.963 ± 0.035 |
| AGTCGGGTTC | 0.973 ± 0.032 |
| AGTCGTCACG | 0.9926 ± 0.0099 |
| AGTCTAAGGG | 0.993 ± 0.013 |
| AGTCTCTGGG | 0.974 ± 0.024 |

| Sequence | switch fluorescence ratio |
| --- | --- |
| AGTCTGAAGA | 0.987 ± 0.036 |
| AGTCTGCCGG | 1.01 ± 0.028 |
| AGTCTGCGCG | 1.002 ± 0.007 |
| AGTCTGTTTC | 0.999 ± 0.024 |
| AGTCTTAGCA | 0.991 ± 0.049 |
| AGTGAATGGA | 0.991 ± 0.024 |
| AGTGAATTTT | 0.988 ± 0.064 |
| AGTGACACCT | 1.15 ± 0.054 |
| AGTGACCCCT | 1.06 ± 0.035 |
| AGTGACGCTC | 1.08 ± 0.024 |
| AGTGACGTAC | 1.77 ± 0.075 |
| AGTGAGCTGG | 0.9733 ± 0.0031 |
| AGTGATAAGT | 0.969 ± 0.015 |
| AGTGATGTTC | 0.976 ± 0.016 |
| AGTGCAGGTG | 2.438 ± 0.015 |
| AGTGCGGGCG | 0.9895 ± 0.003 |
| AGTGCGGGGC | 1.07 ± 0.013 |
| AGTGCGTTTA | 1 ± 0.014 |
| AGTGCTGTGC | 0.997 ± 0.012 |
| AGTGCTTTTG | 0.978 ± 0.018 |
| AGTGCTTTTT | 1.01 ± 0.012 |
| AGTGGAATGC | 1.12 ± 0.032 |

| Sequence | switch fluorescence ratio |
| --- | --- |
| AGTGGAATTC | 1.04 ± 0.012 |
| AGTGGACGGG | 0.994 ± 0.023 |
| AGTGGCATGC | 0.985 ± 0.023 |
| AGTGGGAAGG | 0.956 ± 0.021 |
| AGTGGGAATG | 0.9595 ± 0.0078 |
| AGTGGGACGC | 1 ± 0.044 |
| AGTGGGAGGG | 1 ± 0.02 |
| AGTGGGAGTT | 1.002 ± 0.0081 |
| AGTGGGGCCA | 1.03 ± 0.044 |
| AGTGGGGGGA | 1.02 ± 0.028 |
| AGTGGGGTG | 1.03 ± 0.026 |
| AGTGGGGTGG | 0.982 ± 0.043 |
| AGTGGGTAAG | 0.9869 ± 0.0085 |
| AGTGGGTTGG | 0.99 ± 0.014 |
| AGTGGTATGA | 1.01 ± 0.048 |
| AGTGGTGAGG | 0.983 ± 0.016 |
| AGTGGTTTTT | 0.9946 ± 0.0055 |
| AGTGTACGGG | 1.083 ± 0.0077 |
| AGTGTACTCG | 1.04 ± 0.056 |
